For eleven molecules, Kd results are on record in patent US20250066503A1, “CELL INJURY INDUCING THERAPEUTIC DRUG FOR USE IN CANCER THERAPY” (CHUGAI SEIYAKU KABUSHIKI KAISHA, priority 2016, published 2025).

As a reminder, the Kd is the free concentration of one partner at which half of the binding sites on the other are occupied at equilibrium, for simple one-to-one binding. Lower therefore signals higher affinity.

In this experiment the target is T1, soluble human CD3 epsilon chain (human, UniProt P07766 23-126).
T1 construct: also called CD3ε
T1 sequence (P07766 23-126 limits assumed): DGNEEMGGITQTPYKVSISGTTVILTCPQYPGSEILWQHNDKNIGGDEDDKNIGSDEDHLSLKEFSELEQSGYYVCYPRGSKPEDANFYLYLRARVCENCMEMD
Put plainly: SPR. A general note: Surface plasmon resonance follows binding to a sensor surface in real time, without labels.

B1: CE115HA251-E22Hh/L0000-k0/GL4-E22Hk/H0000-E22L (bispecific antibody, human IgG1, kappa, L234A L235A, N297A)
heavy: QVQLVESGGGVVQPGRSLRLSCAASGFTFSNAWMHWVRQAPGKGLEWVAQIKAKSNNYATYYAESVKGRFTISRDDSKNSLYLQMNSLKTEDTAVYYCRYVHYYYYYGVDAWGQGTTVTVSSASTKGPSVFPLAPSSKSTSGGTAALGCLVKDYFPEPVTVSWNSGALTSGVHTFPAVLQSSGLYSLSSVVTVPSSSLGTQTYICNVNHKPSNTKVDKKVEPKSCDKTHTCPPCPAPEAAGGPSVFLFPPKPKDTLMISRTPEVTCVVVDVSHEDPEVKFNWYVDGVEVHNAKTKPREEQYASTYRVVSVLTVLHQDWLNGKEYKCKVSNKALPAPIEKTISKAKGQPREPQVYTLPPSRCELTKNQVSLSCAVKGFYPSDIAVEWESNGQPENNYKTTPPVLDSDGSFFLVSKLTVDKSRWQQGNVFSCSVMHEALHNHYTQKSLSLSPDYKDDDDK
light: DIVMTQSPLSLPVTPGEPASISCRSSQSLVHSNRNTYLHWYQQKPGQAPRLLIYKVSNRFSGVPDRFSGSGSGTDFTLKISRVEAEDVGVYYCGQGTQVPYTFGQGTKLEIKRTVAAPSVFIFPPSDEQLKSGTASVVCLLNNFYPREAKVQWKVDNALQSGNSQESVTEQDSKDSTYSLSSTLTLSKADYEKHKVYACEVTHQGLSSPVTKSFNRGEC
chain 1: DIVMTQSPLSLPVTPGEPASISCRSSQSLVHSNRNTYLHWYQQKPGQAPRLLIYKVSNRFSGVPDRFSGSGSGTDFTLKISRVEAEDVGVYYCSQNTHVPPTFGQGTKLEIKSSASTKGPSVFPLAPSSKSTSGGTAALGCLVKDYFPEPVTVSWNSGALTSGVHTFPAVLQSSGLYSLSSVVTVPSSSLGTQTYICNVNHKPSNTKVDKKVEPKSCDKTHTCPPCPAPEAAGGPSVFLFPPKPKDTLMISRTPEVTCVVVDVSHEDPEVKFNWYVDGVEVHNAKTKPREEQYASTYRVVSVLTVLHQDWLNGKEYKCKVSNKALPAPIEKTISKAKGQPREPQVCTLPPSRDELTKNQVSLWCLVKGFYPSDIAVEWESNGQPENNYKTTPPVLDSDGSFFLYSKLTVDKSRWQQGNVFSCSVMHEALHNHYTQKSLSLSPHHHHHHHH
chain 2: QVQLVQSGAEVKKPGASVKVSCKASGYTFTDYEMHWIRQPPGQGLEWIGAIDPKTGDTAYSQKFKGRVTLTADKSTSTAYMELSSLTSEDTAVYYCTRFYSYTYWGQGTLVTVSSASVAAPSVFIFPPSDEQLKSGTASVVCLLNNFYPREAKVQWKVDNALQSGNSQESVTEQDSKDSTYSLSSTLTLSKADYEKHKVYACEVTHQGLSSPVTKSFNRGEC
notes: ERY22 format
The molecule B1 gave a Kd of 14.8 nM.

B2: TR01H002-E22Hh/GLS3108-k0/GL4-E22Hk/H0000-E22L (bispecific antibody, human IgG1, kappa, L234A L235A, N297A)
heavy: QVQLVESGGGVVQPGRSLRLSCAASGFTFSNAWMHWVRQAPGKGLEWVAQIKAKSNNYKKYYAESVKGRFTISRDDSKNSLYLQMNSLKTEDTAVYYCRYVHYYYYYGVQAWGQGTTVTVSSASTKGPSVFPLAPSSKSTSGGTAALGCLVKDYFPEPVTVSWNSGALTSGVHTFPAVLQSSGLYSLSSVVTVPSSSLGTQTYICNVNHKPSNTKVDKKVEPKSCDKTHTCPPCPAPEAAGGPSVFLFPPKPKDTLMISRTPEVTCVVVDVSHEDPEVKFNWYVDGVEVHNAKTKPREEQYASTYRVVSVLTVLHQDWLNGKEYKCKVSNKALPAPIEKTISKAKGQPREPQVYTLPPSRCELTKNQVSLSCAVKGFYPSDIAVEWESNGQPENNYKTTPPVLDSDGSFFLVSKLTVDKSRWQQGNVFSCSVMHEALHNHYTQKSLSLSPDYKDDDDK
light: DIVMTQSPLSLPVTPGEPASISCRSSQSLVHSNRNTYLSWYQQKPGQAPRLLIYKVSNRFSGVPDRFSGSGSGTDFTLKISRVEAEDVGVYYCGQGTQVPYTFGQGTKLEIKRTVAAPSVFIFPPSDEQLKSGTASVVCLLNNFYPREAKVQWKVDNALQSGNSQESVTEQDSKDSTYSLSSTLTLSKADYEKHKVYACEVTHQGLSSPVTKSFNRGEC
chain 1: DIVMTQSPLSLPVTPGEPASISCRSSQSLVHSNRNTYLHWYQQKPGQAPRLLIYKVSNRFSGVPDRFSGSGSGTDFTLKISRVEAEDVGVYYCSQNTHVPPTFGQGTKLEIKSSASTKGPSVFPLAPSSKSTSGGTAALGCLVKDYFPEPVTVSWNSGALTSGVHTFPAVLQSSGLYSLSSVVTVPSSSLGTQTYICNVNHKPSNTKVDKKVEPKSCDKTHTCPPCPAPEAAGGPSVFLFPPKPKDTLMISRTPEVTCVVVDVSHEDPEVKFNWYVDGVEVHNAKTKPREEQYASTYRVVSVLTVLHQDWLNGKEYKCKVSNKALPAPIEKTISKAKGQPREPQVCTLPPSRDELTKNQVSLWCLVKGFYPSDIAVEWESNGQPENNYKTTPPVLDSDGSFFLYSKLTVDKSRWQQGNVFSCSVMHEALHNHYTQKSLSLSPHHHHHHHH
chain 2: QVQLVQSGAEVKKPGASVKVSCKASGYTFTDYEMHWIRQPPGQGLEWIGAIDPKTGDTAYSQKFKGRVTLTADKSTSTAYMELSSLTSEDTAVYYCTRFYSYTYWGQGTLVTVSSASVAAPSVFIFPPSDEQLKSGTASVVCLLNNFYPREAKVQWKVDNALQSGNSQESVTEQDSKDSTYSLSSTLTLSKADYEKHKVYACEVTHQGLSSPVTKSFNRGEC
notes: ERY22 format
Molecule B2 showed a Kd of 4.78 nM.

B3: CE115HA236-E22Hh/GLS3108-k0/GL4-E22Hk/H0000-E22L (bispecific antibody, human IgG1, kappa, L234A L235A, N297A)
heavy: QVQLVESGGGVVQPGRSLRLSCAASGFTFSNAWMHWVRQAPGKGLEWVAQIKAKSNNYATYYAESVKGRFTISRDDSKNSLYLQMNSLKTEDTAVYYCRYVHYYAYYGVQAWGQGTTVTVSSASTKGPSVFPLAPSSKSTSGGTAALGCLVKDYFPEPVTVSWNSGALTSGVHTFPAVLQSSGLYSLSSVVTVPSSSLGTQTYICNVNHKPSNTKVDKKVEPKSCDKTHTCPPCPAPEAAGGPSVFLFPPKPKDTLMISRTPEVTCVVVDVSHEDPEVKFNWYVDGVEVHNAKTKPREEQYASTYRVVSVLTVLHQDWLNGKEYKCKVSNKALPAPIEKTISKAKGQPREPQVYTLPPSRCELTKNQVSLSCAVKGFYPSDIAVEWESNGQPENNYKTTPPVLDSDGSFFLVSKLTVDKSRWQQGNVFSCSVMHEALHNHYTQKSLSLSPDYKDDDDK
light: DIVMTQSPLSLPVTPGEPASISCRSSQSLVHSNRNTYLSWYQQKPGQAPRLLIYKVSNRFSGVPDRFSGSGSGTDFTLKISRVEAEDVGVYYCGQGTQVPYTFGQGTKLEIKRTVAAPSVFIFPPSDEQLKSGTASVVCLLNNFYPREAKVQWKVDNALQSGNSQESVTEQDSKDSTYSLSSTLTLSKADYEKHKVYACEVTHQGLSSPVTKSFNRGEC
chain 1: DIVMTQSPLSLPVTPGEPASISCRSSQSLVHSNRNTYLHWYQQKPGQAPRLLIYKVSNRFSGVPDRFSGSGSGTDFTLKISRVEAEDVGVYYCSQNTHVPPTFGQGTKLEIKSSASTKGPSVFPLAPSSKSTSGGTAALGCLVKDYFPEPVTVSWNSGALTSGVHTFPAVLQSSGLYSLSSVVTVPSSSLGTQTYICNVNHKPSNTKVDKKVEPKSCDKTHTCPPCPAPEAAGGPSVFLFPPKPKDTLMISRTPEVTCVVVDVSHEDPEVKFNWYVDGVEVHNAKTKPREEQYASTYRVVSVLTVLHQDWLNGKEYKCKVSNKALPAPIEKTISKAKGQPREPQVCTLPPSRDELTKNQVSLWCLVKGFYPSDIAVEWESNGQPENNYKTTPPVLDSDGSFFLYSKLTVDKSRWQQGNVFSCSVMHEALHNHYTQKSLSLSPHHHHHHHH
chain 2: QVQLVQSGAEVKKPGASVKVSCKASGYTFTDYEMHWIRQPPGQGLEWIGAIDPKTGDTAYSQKFKGRVTLTADKSTSTAYMELSSLTSEDTAVYYCTRFYSYTYWGQGTLVTVSSASVAAPSVFIFPPSDEQLKSGTASVVCLLNNFYPREAKVQWKVDNALQSGNSQESVTEQDSKDSTYSLSSTLTLSKADYEKHKVYACEVTHQGLSSPVTKSFNRGEC
notes: ERY22 format
Turning to B3, the Kd stood at 6.95 nM.

B4: rCE115H-G1dh//-Hi-Kn010G3/L0000-k0 (antibody, V domains shown)
VH: EVQLVETGGSLVQPGKSLKLTCATSGFTFSNAWMHWVRQSPEKQLEWVAQIKAKSNNYATYYAESVKGRFTISRDDSKSNIYLQMNSLKEEDTAVYYCRYVHYGAYYGVDAWGQGTSVTVSS
VL: DIVMTQSPLSLPVTPGEPASISCRSSQSLVHSNRNTYLHWYQQKPGQAPRLLIYKVSNRFSGVPDRFSGSGSGTDFTLKISRVEAEDVGVYYCGQGTQVPYTFGQGTKLEIKR
notes: one-arm
B4 registered a Kd of 57.6 nM.

B5: TR01H080-E22Hh/none-Hi-Kn010G3/L0000-k0 (antibody, V domains shown)
VH: QVQLVESGGGLVQPGRSLRLSCAASGFTFSNAWMHWVRQAPGKGLEWVAQIKDKSNNYATYYAESVKGRFTISRADSKNSIYLQMNSLKTEDTAVYYCRYVHYAAVRRRLSSYGVDIWGQGTTVTVSS
VL: DIVMTQSPLSLPVTPGEPASISCRSSQSLVHSNRNTYLHWYQQKPGQAPRLLIYKVSNRFSGVPDRFSGSGSGTDFTLKISRVEAEDVGVYYCGQGTQVPYTFGQGTKLEIKR
notes: one-arm
The molecule B5 showed a Kd of 3.25 nM.

B6: TR01H040-E22Hh/none-Hi-Kn010G3/TR01L011-k0 (antibody, V domains shown)
VH: QVQLVESGGGLVQPGRSLRLSCAASGFTFSNAWMHWVRQAPGKGLEWVAQIKDKSQNYATYYAESVKGRFTISRADSKNSIYLQMNSLKTEDTAVYYCRYVHYSASYGVDAWGQGTTVTVSS
VL: DIVMTQSPLSLPVTPGEPASISCQASESLVHSNRNTYLHWYQQKPGQAPRLLIYKVSNRFRGVPDRFSGSGSGTDFTLKISRVEAEDVGVYYCGQGTQVPYTFGQGTKVEIE
notes: one-arm
In turn, B6 had a Kd of 35.7 nM.

B7: TR01H040-E22Hh/none-Hi-Kn010G3/L0000vk1-k0 (antibody, V domains shown)
VH: QVQLVESGGGLVQPGRSLRLSCAASGFTFSNAWMHWVRQAPGKGLEWVAQIKDKSQNYATYYAESVKGRFTISRADSKNSIYLQMNSLKTEDTAVYYCRYVHYSASYGVDAWGQGTTVTVSS
VL: DIQMTQSPSSLSASVGDRVTITCRSSQSLVHSNRNTYLHWYQQKPGKAPKLLIYKVSNRFSGVPSRFSGSGSGTDFTFTISSLQPEDIATYYCGQGTQVPYTFGQGTKVEIK
notes: one-arm
Turning to B7, binding was characterised by a dissociation constant (Kd) of 46.9 nM.

B8: TR01H082-E22Hh/none-Hi-Kn010G3/TR01L024-k0 (antibody, V domains shown)
VH: QVQLVESGGGLVQPGRSLRLSCAASGFTFSNAWMHWVRQAPGKGLEWVAQIKDKSQNYATYYAESVKGRFTISRDDSKNSLYLQMNSLKTEDTAVYYCRYVHYAAGYGVDAWGQGTTVTVSS
VL: DIVMTQSPLSLPVTPGEPASISCQASESPVHSNRNTYLHWYLQKPGQSPQLLIYKVSNRFSGVPDRFSGSGSGTDFTLKISRVEAEDVGVYYCTQGTQVPYTFGQGTKLEIK
notes: one-arm
For B8, binding was put at a Kd of 47.6 nM.

B9: TR01H040-E22Hh/none-Hi-Kn010G3/TR01L012-k0 (antibody, V domains shown)
VH: QVQLVESGGGLVQPGRSLRLSCAASGFTFSNAWMHWVRQAPGKGLEWVAQIKDKSQNYATYYAESVKGRFTISRADSKNSIYLQMNSLKTEDTAVYYCRYVHYSASYGVDAWGQGTTVTVSS
VL: DIVMTQSPLSLPVTPGEPASISCRSSQSLVHSNRNTYLHWYLQKPGQSPQLLIYKVSNRFRGVPDRFSGSGSGTDFTLKISRVEAEDVGVYYCGQGTQVPYTFGQGTKVEIE
notes: one-arm
B9 came in with a Kd of 42.2 nM.

B10: TR01H040-E22Hh/none-Hi-Kn010G3/TR01L018-k0 (antibody, V domains shown)
VH: QVQLVESGGGLVQPGRSLRLSCAASGFTFSNAWMHWVRQAPGKGLEWVAQIKDKSQNYATYYAESVKGRFTISRADSKNSIYLQMNSLKTEDTAVYYCRYVHYSASYGVDAWGQGTTVTVSS
VL: DIVMTQSPLSLPVTPGEPASISCQASESPVHSNRNTYLHWYLQKPGQSPQLLIYKVSNRFSGVPDRFSGSGSGTDFTLKISRVEAEDVGVYYCGQGTQVPYTFGQGTKLEIK
notes: one-arm
B10 yielded a Kd of 45.1 nM.

B11: TR01H040-E22Hh/none-Hi-Kn010G3/TR01L013-k0 (antibody, V domains shown)
VH: QVQLVESGGGLVQPGRSLRLSCAASGFTFSNAWMHWVRQAPGKGLEWVAQIKDKSQNYATYYAESVKGRFTISRADSKNSIYLQMNSLKTEDTAVYYCRYVHYSASYGVDAWGQGTTVTVSS
VL: DIVMTQSPLSLPVTPGEPASISCQASESLVHSNRNTYLHWYLQKPGQSPQLLIYKVSNRFRGVPDRFSGSGSGTDFTLKISRVEAEDVGVYYCGQGTQVPYTFGQGTKVEIE
notes: one-arm
For B11, the Kd came to 41.5 nM.
